Test results: article PMC4655416

Assays:
[1] = target: CeHsp90-MC (middle and C-terminal domains of C. elegans Hsp90) (C. elegans); experiment: AUC; sedimentation velocity with UV/VIS absorbance optics (OD280); PPH-5 titrated to a constant concentration of CeHsp90 (4 μM) or CeHsp90-MC (3.5 μM); global fit to sequential binding of a first and second PPH-5
[2] = target: CeHsp90-MC (middle and C-terminal domains of C. elegans Hsp90) (C. elegans)

stoichiometry N (PPH-5 per CeHsp90-MC dimer) [1]: 2
kcat of PPH-5 towards the model peptide KRpTIRR (50 μM) with 3 μM Hsp90-MC [2]: 0.161 s⁻¹
B1: protein phosphatase 5 from C. elegans (PPH-5) (enzyme)
chain: MAATITDDIVATVLESIEEKSYEDEKEKAGMIKDEANQFFKDQVYDVAADLYSVAIEIHPTAVLYGNRAQAYLKKELYGSALEDADNAIAIDPSYVKGFYRRATANMALGRFKKALTDYQAVVKVCPNDKDARAKFDECSKIVRRQKFEAAISTDHDKKTVAETLDINAMAIEDSYDGPRLEDKITKEFVLQLIKTFKNQQKLHKKYAFKMLLEFYNYVKSLPTMVEITVPTGKKFTICGDVHGQFYDLCNIFEINGYPSETNPYLFNGDFVDRGSFSVETIFTMIGFKLLYPNHFFMSRGNHESDVMNKMYGFEGEVKAKYTQQMCDMFTETFCWLPLCHLINEKIFVCHGGLFKEDGVTLEDIRKTDRNRQPPDEGIMCDLLWSDPQPINGRSPSKRGVGCQFGPDVTSKWCETNGIEYVVRSHEVKPEGYEMHHNGQCFTVFSAPNYCDQMNNKGAFITITGDNLTPRFTPFDAVPHPKLPPMAYANSLFGFN
